Results on 6 molecules are retold here after publication PMC9798703.

Assay in all cases: fluorescence anisotropy
On the technique in general: Polarisation of emitted light reports the rotation of a fluorescent probe.

Data set [1] concerns the target T1, ERα DBD-Ext (Homo sapiens, UniProt P03372).
Data set [2] has as its target T1, ERα DBD-Ext. This is another data set of the same source.
For data set [3], the target named is T1, ERα DBD-Ext. This is another data set of the same source.
Data set [4] concerns the target T1, ERα DBD-Ext. The source holds these as a separate data set.

Where two headings read alike, the source gives them in different places.

Regarding GGGAUCUGCCUGCAUCCUGACGCGGUGCCGUCCC (structured_RNA) [TFF1], the binding result with ERα DBD-Ext [1] is recorded as “binds”.
Usually Kd stands for a measure of binding affinity in units of concentration. A high value points to lower affinity. In the data set with ERα DBD-Ext [2], AUACAACAUACAACAUACAACAUACAACAUACAAC (ssRNA) [ssRNA (env8)] showed a Kd of about 1100 nM.
Turning to UCAGGUCACUCUGACCUGGCUUCAGGUCAGAGUGACCUGA (structured_RNA) [rERE loop rescue], the binding result with ERα DBD-Ext [3] is “binds”.

B1: rERE duplex (dsRNA)
RNA 1: CAGGUCAGAGUGACCUGAUU
RNA 2: AAUCAGGUCACUCUGACCUG
For B1, in the data set with ERα DBD-Ext [4], the affinity, expressed as Kd, was 1100 nM.

B2: GREB1 (structured_RNA)
RNA: GGGAUGCCGAAGAGUUGAUGUCAAUCUUUUUUUCCUAAGAAAAAAAGUCCGCGAGUAUUCC
For B2, the binding result with ERα DBD-Ext [1] is given as “binds”.
Take CAGGUCAGAGUGACCUGAUUCGUCAGGUCACUCUGACCUG (structured_RNA) [rERE]: the Kd with ERα DBD-Ext [4] stood at 130 ± 20 nM.
